Experiment [1] deals with T1, Rat IL-23R_huFC (rat, UniProt F1LX96 39-369).
T1 sequence: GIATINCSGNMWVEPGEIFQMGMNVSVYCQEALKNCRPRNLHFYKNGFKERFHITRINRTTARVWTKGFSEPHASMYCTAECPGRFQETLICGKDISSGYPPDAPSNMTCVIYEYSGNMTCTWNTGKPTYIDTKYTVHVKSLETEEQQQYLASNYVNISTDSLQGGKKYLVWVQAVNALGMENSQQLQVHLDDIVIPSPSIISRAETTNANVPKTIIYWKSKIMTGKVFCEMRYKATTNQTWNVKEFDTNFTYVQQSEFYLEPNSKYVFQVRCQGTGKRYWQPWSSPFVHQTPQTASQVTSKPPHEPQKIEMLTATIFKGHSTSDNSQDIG
As to the kind of experiment: rat IL-23R competitive binding ELISA. In general terms: In an ELISA, binding on a coated surface is turned into a signal by an enzyme label.

Experiment [2] concerns the target Rat IL-23R_huFC (rat). Briefly: rat ELISA vs IL-23.
Experiment [3] addresses T2, IL23R_huFC (human, UniProt Q5VWK5 24-353).
T2 sequence (looked up): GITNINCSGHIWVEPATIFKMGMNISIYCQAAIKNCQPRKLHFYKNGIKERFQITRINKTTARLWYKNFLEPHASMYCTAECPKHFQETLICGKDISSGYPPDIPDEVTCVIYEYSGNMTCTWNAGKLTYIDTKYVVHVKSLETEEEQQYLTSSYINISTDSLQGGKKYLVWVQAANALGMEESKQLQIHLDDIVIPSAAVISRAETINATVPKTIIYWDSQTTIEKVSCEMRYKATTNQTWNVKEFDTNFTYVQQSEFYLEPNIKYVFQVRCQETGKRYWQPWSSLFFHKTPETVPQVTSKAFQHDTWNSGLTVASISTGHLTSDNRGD
As to the kind of experiment: human ELISA vs IL-23.

The target in experiment [4] is T3, IL-23R on human cells (IL-23R-expressing DB cells; human NK cells) (human, UniProt Q5VWK5 24-629).
T3 sequence (looked up): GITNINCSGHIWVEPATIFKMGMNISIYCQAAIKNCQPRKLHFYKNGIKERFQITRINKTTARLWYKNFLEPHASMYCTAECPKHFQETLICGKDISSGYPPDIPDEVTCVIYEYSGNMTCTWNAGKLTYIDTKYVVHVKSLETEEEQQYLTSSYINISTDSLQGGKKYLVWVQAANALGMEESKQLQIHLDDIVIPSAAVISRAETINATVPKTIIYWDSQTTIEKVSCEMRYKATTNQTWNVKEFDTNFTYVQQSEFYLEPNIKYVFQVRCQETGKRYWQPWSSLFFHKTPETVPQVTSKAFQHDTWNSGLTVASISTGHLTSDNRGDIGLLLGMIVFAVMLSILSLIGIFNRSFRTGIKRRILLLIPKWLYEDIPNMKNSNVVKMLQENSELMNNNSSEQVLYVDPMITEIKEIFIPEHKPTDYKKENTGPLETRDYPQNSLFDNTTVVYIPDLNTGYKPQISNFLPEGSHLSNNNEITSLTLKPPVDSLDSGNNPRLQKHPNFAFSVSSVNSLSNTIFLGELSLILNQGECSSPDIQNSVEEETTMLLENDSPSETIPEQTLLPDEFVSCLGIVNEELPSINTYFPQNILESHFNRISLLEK
Briefly: cell-based or functional assay.

Experiment [5] concerns the target T2, IL23R_huFC. Briefly: human ELISA vs IL-23. The source holds these as a separate data set.
For experiment [6], the target named is T4, IL23R_huFC (human, UniProt Q5VWK5 24-353).
T4 sequence (looked up): T2 sequence (looked up)
Briefly: IL23-IL23R competitive binding ELISA.

The values that follow come from patent US20190300590A1 (PROTAGONIST THERAPEUTICS, published 2019).

A word on the IC50: it is the point on the concentration scale where inhibition reaches its midpoint. A high value points to lower potency.

*1 amine or outer side, *2 acyl side, *3 side chain or, on linkers, in order; H or OH if unused. Bridges are numbered along the chain shown (N, C = ends). Primed or numbered codes have the meaning given here. [ ]: non-standard residue; d: D form. Phe(4-OMe)(3) = O-methyl-L-tyrosine (4-methoxy-L-phenylalanine), COc1ccc(C[C@H](N[*:1])C(=O)[*:2])cc1; Phe(4-OMe) = 4-methoxy-L-phenylalanine (O-methyl-L-tyrosine), COc1ccc(C[C@H](N[*:1])C(=O)[*:2])cc1; Trp(6-Cl) = N[C@@H](Cc1c[nH]c2cc(Cl)ccc12)C(=O)O; 2Nal = N[C@@H](Cc1ccc2ccccc2c1)C(=O)O; AEF = NCCOc1ccc(C[C@H](N)C(=O)O)cc1; Suc = O=C(CCC(=O)[*:2])[*:1]; αMeK = C[C@](N)(CCCCN)C(=O)O; Abu = CC[C@H](N)C(=O)O

B1: 4-methylmorpholine-2,6-dione-[Pen]-QTWQ[Pen]-[Phe(4-OMe)]-[2-Nal]-[α-MeLys]-[Lys(Ac)]-NG-NH2 (peptide)
peptide: XQTWQXFXKKNG
modifications: N-terminal 4-methylmorpholine-2,6-dione; Pen-Pen disulfide; Phe(4-OMe); 2-Nal; α-MeLys; Lys(Ac); NH2
In the experiment with Rat IL-23R_huFC [1], B1 gave an IC50 of 25 to 100 nM. Ac-[Abu]QTWQC[Phe(4-OMe)(3)][2Nal][αMeK]K(Ac)NG-NH2 (thioether 1-6) [Ac-Cyclo-[[Abu]-QTWQC]-[Phe(4-OMe)]-[2-Nal][α-MeLys]-[Lys(Ac)]-NG-NH2] registered an IC50 with Rat IL-23R_huFC [2] of 10 to 25 nM. XQTWQXFXKKNG (Ac; Pen-Pen disulfide; Phe(4-OMe); 1-Nal; α-MeLys; Lys(Ac); NH2) [Ac-[Pen]-QTWQ-[Pen]-[Phe(4-OMe)]-[1-Nal]-[α-MeLys]-[Lys(Ac)]-NG-NH2] registered an IC50 with Rat IL-23R_huFC [1] of 100 to 1000 nM.

With Ac-[Abu]QT[Trp(6-Cl)]QC[AEF][2Nal][αMeK]ENG-NH2 (thioether 1-6) [Ac-Cyclo-[[Abu]-QT-[6-chloroTrp]-QC]-[Phe[4-(2-aminoethoxy)]]-[2-Nal]-[α-MeLys]-ENG-NH2], the half-inhibitory concentration (IC50) in the experiment with IL23R_huFC [3] and with Rat IL-23R_huFC [2] was 10 to 25 nM in each case. In addition, the “pStat3 HTRF IC50” value in experiment [4] was under 10 nM. In the case of Ac-[Abu]QTWQCY[2Nal][αMeK]ENG-NH2 (thioether 1-6) [Ac-Cyclo-[[Abu]-QTWQC]-Y-[2-Nal]-[α-MeLys]-ENG-NH2], the IC50 with Rat IL-23R_huFC [2] fell in the range of 10 to 25 nM.

For Ac-[Abu]QTWQC[Phe(4-OMe)(3)][2Nal][αMeK]K(Ac)NS-NH2 (thioether 1-6) [Ac-Cyclo-[[Abu]-QTWQC]-[Phe(4-OMe)]-[2-Nal][α-MeLys]-[Lys(Ac)]-NS-NH2], the IC50 with IL23R_huFC [3] and with Rat IL-23R_huFC [2] was 10 to 25 nM in each case. For the same molecule, in experiment [4], the “pStat3 HTRF IC50” value is under 10 nM. As to Ac-[Abu]QTWQC[Phe(4-OMe)(3)][2Nal][αMeK]K(Ac)NA-NH2 (thioether 1-6) [Ac-Cyclo-[[Abu]-QTWQC]-[Phe(4-OMe)]-[2-Nal][α-MeLys]-[Lys(Ac)]-NA-NH2], the figures for the IC50 in the experiment with IL23R_huFC [5] and with Rat IL-23R_huFC [2] were under 10 nM and 10 to 25 nM, respectively. In addition, the “pStat3 HTRF IC50” value in experiment [4] is under 10 nM. Consider Ac-[Abu]QTWQC[AEF][2Nal][αMeK]DNG-NH2 (thioether 1-6) [Ac-Cyclo-[[Abu]-QTWQC]-[Phe[4-(2-aminoethoxy)]]-[2-Nal][α-MeLys]-DNG-NH2], for which the IC50 is under 10 nM in the experiment with IL23R_huFC [5] and 10 to 25 nM with Rat IL-23R_huFC [2]. In experiment [4], the “pStat3 HTRF IC50” value is under 10 nM.

B2: glutaric acid-[Pen]-QTWQ[Pen]-[Phe(4-OMe)]-[2-Nal]-[α-MeLys]-[Lys(Ac)]-NG-NH2 (peptide)
peptide: XQTWQXFXKKNG
modifications: N-terminal glutaric acid; Pen-Pen disulfide; Phe(4-OMe); 2-Nal; α-MeLys; Lys(Ac); NH2
In the case of B2, the IC50 in the experiment with Rat IL-23R_huFC [1] is 25 to 100 nM. As for Ac-[Abu]QTWQC[Phe(4-OMe)]W[αMeK]K(Ac)NG-NH2 (thioether 1-6) [Ac-Cyclo-[[Abu]-QTWQC]-[Phe(4-OMe)]-W-[α-MeLys]-[Lys(Ac)]-NG-NH2], the half-inhibitory concentration (IC50) with IL23R_huFC [3] and with Rat IL-23R_huFC [2] was 10 to 25 nM in each case. In turn, Ac-[Abu]QTWQC[AEF][2Nal][αMeK]K(Suc)NG-NH2 (thioether 1-6) [Ac-Cyclo-[[Abu]-QTWQC]-[Phe[4-(2-aminoethoxy)]]-[2-Nal]-[α-MeLys]-[Lys(succinic acid)]-NG-NH2] came in with an IC50 with Rat IL-23R_huFC [2] of 10 to 25 nM.

B3: 4-fluorophenylacetic acid-[Pen]-QTWQ-[Pen]-[Phe(4-OMe)]-[2-Nal]-[α-MeLys]-[Lys(Ac)]-NG-NH2 (peptide)
peptide: XQTWQXFXKKNG
modifications: N-terminal 4-fluorophenylacetic acid; Pen-Pen disulfide; Phe(4-OMe); 2-Nal; α-MeLys; Lys(Ac); NH2
In turn, B3 displayed an IC50 with Rat IL-23R_huFC [1] of 100 to 1000 nM.

Regarding Ac-[Abu]QTWQC[Phe(4-OMe)(3)][2Nal][αMeK]K(Ac)NAE-NH2 (thioether 1-6) [Ac-Cyclo-[[Abu]-QTWQC]-[Phe(4-OMe)]-[2-Nal][α-MeLys]-[Lys(Ac)]-NAE-NH2], the IC50 is under 10 nM in the experiment with IL23R_huFC [5] and 10 to 25 nM in the experiment with Rat IL-23R_huFC [2]. In addition, the “pStat3 HTRF IC50” value in experiment [4] is under 10 nM.

B4: gallic acid-[Pen]-QTWQ[Pen]-[Phe(4-OMe)]-[2-Nal]-[α-MeLys]-[Lys(Ac)]-NG-NH2 (peptide)
peptide: XQTWQXFXKKNG
modifications: N-terminal gallic acid; Pen-Pen disulfide; Phe(4-OMe); 2-Nal; α-MeLys; Lys(Ac); NH2
Regarding B4, the IC50 in the experiment with IL23R_huFC [6] is 1000 to 10000 nM. Regarding XQTWQXYWKKNG (Ac; Pen-Pen disulfide; α-MeLys; Lys(Ac); NH2) [Ac-[Pen]-QTWQ-[Pen]-YW-[α-MeLys]-[Lys(Ac)]-NG-NH2], the IC50 in the experiment with IL23R_huFC [6] lay within 100 to 1000 nM. In the experiment with Rat IL-23R_huFC [1], XQTWQXFWKKNG (Ac; Pen-Pen disulfide; Phe(4-OMe); α-MeLys; Lys(Ac); NH2) [Ac-[Pen]-QTWQ-[Pen]-[Phe-(4-OMe)]-W-[α-MeLys]-[Lys(Ac)]-NG-NH2] gave a half-inhibitory concentration (IC50) of 25 to 100 nM.

Regarding XQTWQCFXXKNG (as bracketed in name; thioether cyclo) [Ac-Cyclo-[[Abu]-QTWQC]-[Phe(4-OMe)]-[2-Nal]-[α-MeOrn]-[Lys(Ac)]-NG-NH2], the IC50 in the experiment with IL23R_huFC [3] and with Rat IL-23R_huFC [2] was 10 to 25 nM throughout. The “pStat3 HTRF IC50” value in experiment [4] is under 10 nM.

B5: isovaleric acid-[Pen]-QTWQ[Pen]-[Phe(4-OMe)]-[2-Nal]-[α-MeLys]-[Lys(Ac)]-NG-NH2 (peptide)
peptide: XQTWQXFXKKNG
modifications: N-terminal isovaleric acid; Pen-Pen disulfide; Phe(4-OMe); 2-Nal; α-MeLys; Lys(Ac); NH2
Molecule B5 came in with an IC50 in the experiment with Rat IL-23R_huFC [1] of 25 to 100 nM.
